Reference: US20220054588A1, “USE OF SAP FOR THE TREATMENT OF EUROTIOMYCETES FUNGI INFECTIONS” (HUMANITAS MIRASOLE S.P.A., priority 2018, published 2022)

Tested on: A. fumigatus
Assay: Inflammatory response in BALFs after i.t. injection of Sap-opsonised conidia
Assay type: in vivo
Conditions: Apcs−/− mice, 16 h
Protocol: FIG. 5 depicts the rescue of susceptibility to A. fumigatus in SAP-deficient mice. a) b) c) d) i.t. injection of non-opsonised or Sap-opsonised AF conidia. a) survival of wt and Apcs^−/− mice. Wt, n=10; wt+Sap, n=10; Apcs^−/−, n=14; Apcs^−/−+Sap, n=13.****, P<0.0001, wt vs. Apcs^−/− or Apcs^−/− vs. Apcs^−/−+Sap (Mantel-Cox test). b) and c) levels of TNF-α (b) and MPO (c) in BALFs of mice (16 h). b),****, P<0.0001;**, P<0.01. c),***, P<0.0005. d, FACS analysis of neutrophil recruitment in lung (16 h). Mean±SEM.****, P<0.0001;*, P<0.05. b), c), d), Mean±SEM; Mann-Whitney test.
BALFs collection and analysis. BALFs were performed with 1.5 ml PBS, pH 7.4, containing protease inhibitors (Complete tablets, Roche Diagnostic; PMSF, Sigma-Aldrich) and 10 mM EDTA (Sigma-Aldrich) with a 22-gauge venous catheter. BALFs were centrifuged, and supernatants were collected for quantification of total protein content with Bradford's assay (Bio-RAD) and cytokines as described below. After erythrocyte lysis with ACK solution (pH 7.2; NH4Cl 0.15 M, KHCO3 10 mM, EDTA 0.1 mM), cells were resuspended in PBS, pH 7.4, containing 10 mM EDTA and 1% heat-inactivated fetal bovine serum (FCS; Sigma-Aldrich), stained with live and death dye (ThermoFisher Scientific-Molecular Probes) and analysed by BD FACS Canto™ II Flow Cytometer (BD Biosciences) with the following specific antibodies: peridinin chlorophyll protein complex (PerCP)—or brilliant violet (BV) 650-labelled anti-CD45 (#30-F11, IgG2b; 4 μg/ml); FITC- or phycoerythrin (PE)-CF594-labelled anti-Ly6G (#1A8, IgG2a; 4 μg/ml); allophycocyanin (APC)—or BV421-labelled anti-CD11b (#M 1/70, RUO, IgG2b; 1 μg/ml) (all from BD Biosciences).
Proteins. A recombinant murine SAP from mouse myeloma cell line NSO was used (R&D Systems). Native SAP from human serum was purchased by Merck-Millipore. […] Purity of the recombinant protein was assessed by SDS-PAGE followed by silver staining. […] SAP levels were measured in mouse plasma by ELISA (DuoSet ELISA; R&D Systems). Murine TNF-α, CCL2, MPO were measured by ELISA (DuoSet ELISA; R&D Systems). […]

B1: recombinant murine SAP: recombinant murine SAP from mouse myeloma cell line NSO (R&D Systems) (protein, UniProt P12246 21-224, looked up)
Serum amyloid P-component: QTDLKRKVFVFPRESETDHVKLIPHLEKPLQNFTLCFRTYSDLSRSQSLFSYSVKGRDNELLIYKEKVGEYSLYIGQSKVTVRGMEEYLSPVHLCTTWESSSGIVEFWVNGKPWVKKSLQREYTVKAPPSIVLGQEQDNYGGGFQRSQSFVGEFSDLYMWDYVLTPQDILFVYRDSPVNPNILNWQALNYEINGYVVIRPRVWD
normalized: MPO level in BALFs | TNF-α level in BALFs | neutrophil number in BALFs
